Molecular target: T1, biotinylated recombinant human CD70 (extracellular domain, Fc tag) (human, UniProt P32970 52-193, chemically biotinylated using 5-fold excess of Biotin)
T1 construct: Bought from ACROBiosystems; also called bio.hCD70; Bio.CD70; not shown: C-terminal Fc Tag of the bought protein (ACROBiosystems)
T1 sequence: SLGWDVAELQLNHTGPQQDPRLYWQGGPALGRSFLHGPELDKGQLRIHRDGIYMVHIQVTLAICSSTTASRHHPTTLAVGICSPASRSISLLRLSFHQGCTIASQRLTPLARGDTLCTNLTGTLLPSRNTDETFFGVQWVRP
Assay: crude cell extract HTRF with 2 nM biotinylated hCD70
Description: Selected clones bind specially to human CD70 as shown by crude extract HTRF Individual selected ankyrin repeat proteins specifically binding to hCD70 in solution were identified by a Homogeneous Time Resolved Fluorescence (HTRF) assay using crude extracts of ankyrin repeat protein-expressing Escherichia coli cells using standard protocols. Ankyrin repeat protein clones selected by ribosome display were cloned into derivatives of the pQE30 (Qiagen) expression vector (pMPDV25), transformed into E. coli XL1-Blue (Stratagene), plated on LB-agar (containing 1% glucose and 50 μg/ml ampicillin) and then incubated overnight at 37° C. […]
The extract of each lysed clone was applied as a 1:2000 dilution (final concentration) in PBSTB (PBS supplemented with 0.1% Tween 20® and 0.2% (w/v) BSA, pH 7.4) together with 2 nM (final concentration) biotinylated hCD70, 1:400 (final concentration) of anti-strep-Tb HTRF antibody—FRET donor conjugate (Cisbio) and 1:400 (final concentration) of anti-6His-D2 antibody FRET acceptor conjugate (Cisbio) to a well of 384 well plate and incubated for 60 minutes at RT. The HTRF was read-out on a Tecan M1000 using a 340 nm excitation wavelength and a 665±10 nm emission filter.

B1: DARPin® protein #4 (designed binder)
chain: MRGSHHHHHHGSDLGFKLLQAALRGQDDEVRILLAAGADVNAKDQLGTTPLHLAAHYGHLEIVEVLLKAGADVNAKDVWGDTPLHLAAQHGHLEIVEVLLKAGADVNAQDRAGYTPADLAAQEGHEDIAEVLQKAA
B1: binds.
